{
  "source": "a protein production outcome set (Wang et al. 2014)",
  "data": [
    {"experiment": "label from the status in PepcDB records", "values": [
      {"sequence": "SASRGKTETSKLKQNLEEQLDRLMQQLQDLEECREELDTDEYEETKKETLEQLSEFNDSLKKIMSGNMTLVDELSGMQLAIQAAISQAFKTPEVIRLFAKKQPGQLRTRLAEMDRDLMVGKLERDLYTQQKVEILTALRKLGEKLTADDEAFLSANAGAILSQFEKVSTDLGSGDKILALASFEVEKTKK", "protein production": "not failed"},
      {"sequence": "SDDDNPTVDPANIDYTPENASSWHNYMRNVAALLKTDATNLYNAWNSSYKGGESYASLFKAHSGSPYASALSCVEEIVDKCAEIANEVGTAKIGDPYNLYKAGNTEEALYAVESWYSWHSRDDYTNNIYSIRNAYYGSLDGNINANSLSTVIAGANSSLDTKIKNAIQKAAKAIQDIPQPFRNHIPSNETVAAMDACAELESILKNDLKSYIANNSNNINTDAVLNPVVTQYVDAVVVPTYKSLKEKNDALYNAVIVLADNPSNSAFETACDAWITAREPWEKSEAFLFGPVDEMGLDPNMDSWPLDQNAIVQILNSQSWSDLEWSEGDDEAAVESAQNVRGFHTLEFLLYKNGEPRKVQ", "protein production": "not failed"},
      {"sequence": "SDNEFPDFDYQTVYFANQYGLRTIELGESEFVDNTLDNQHKMVIKAAWGGGYTNRNNVVINFKVDESLCDNLYFKDTDQPLVPMPASYYTLASDRIAIPKGQIMAGVEVQLTDDFFADEKSISENYVIPLLMTNVQGADSILQGKPVVENPVLTNAGDWSILPQNFVLYAVKYVNPWHGEYLRRGIDHATVAGTSKDIIRHEQFVENDEVVNISTKSMKDNLLTLKTKDESGKDISYTVRLSFAEDGSCTVHSGSQNVVVSGSGKFVSKGEKNSLGGKDRNAIYLDYTVNLTDNNIQLATKDTLVLRTRNVYGGKSLEVVRK", "protein production": "not failed"},
      {"sequence": "SDPDADRIGVAVRNNEGRMVLINGNEICSLLIYYSIMRRKELGDLHPDDYIVKTIVTTELIRDIAKKEHVSMFDCYTGFKWIAAVIRENEGRRRYIGGGEESYGFLWEDFIRDKSSVSACALFCEMAAWALDRGMSVYRLIRSIYLEYGLYYE", "protein production": "failed"},
      {"sequence": "SDRKVAREFRHKVDFLIENDAEKDYLYDVLRMYHQTMDVAVLVGDLKLVINEPSRLPLFDAIRPLIPLKHQVEYDQLTPRRSRKLKEVRLDRLHPEGLGLSVRGGLEFGCGLFISHLIKGGQADSVGLQVGDEIVRINGYSISSCTHEEVINLIRTKKTVSIKVRHIGLIPVKSSPDEPLTWQYVDQFVSESGGVRGSLGSPGNRENKEKKVFISLVGSRGLGCSISSGPIQKPGIFISHVKPGSLSAEVGLEIGDQIVEVNGVDFSNLDHKEGRELFMTDRERLAEARQRELQRQELLMQKRLAMESNKILQEQQEMERQRRKEIAQKAAEENERYRKEMEQIVEEEEKFKKQWEEDWGSKEQLLLPKTITAEVHPVPLRKPKYDQGVEPELEPADDLDGGTEEQGEQDFRKYEEGFDPYSMFTPEQIMGKDVRLLRIKKEGSLDLALEGGVDSPIGKVVVSAVYERGAAERHGGIVKGDEIMAINGKIVTDYTLAEADAALQKAWNQGGDWIDLVVAVCPPKEYDDELTFF", "protein production": "failed"},
      {"sequence": "SDSTAGTDAVAVGGTFQFHSPDGKMEIFYDEADRQQLPDIGGDSLMEEGTQINLSDFENQVVILNAWGQWCAPCRSESDDLQIIHEELQAAGNGDTPGGTVLGINVRDYSRDIAQDFVTDNGLDYPSIYDPPFMTAASLGGVPASVIPTTIVLDKQHRPAAVFLREVTSKDVLDVALPLVDEA", "protein production": "not failed"},
      {"sequence": "SEDINRNPLLPTKEDEKMDGVIYGAYLPNLEKSVIPIGTASESTEPVNRYQIGVNLAGDAWAGYMSPRDNKFNGSKNFTNYFMYENWVNYVYSFMVTDVYSPWMQIKRISQDEGTRNDEIYALAQIIKIAALHRTTDMFGPIPYSQVGKGSFKVAYDSQESVYRSFLKELEEAVQTLDDYSNKSKEVLPAFDIVYNGDVNKWMRFANSLMLRLAIRVRFADAGLAKEYAEKAVKHPAGLINSKELAAQMGKGAGLQMKNPLKVINEEYNDTRMGATIYSYLAGYNDARAAVYFVKNNGFKAVRCGIAKSGDAYNGFTRPNVHEDDPLYWMKASEVCFLKAEGALAGFDMGGSAGDFYNAGIRMSFSENGLDNSSAETYLKDSTRKPANYTDTSNGELSANAPSSITIRWENGATEEEKLERIITQKYLAIFPNGQEAWTEWRRTGYPRQIVVAENKTNSAVLIGNGYDLGGVRRLPYPRTEYEQNGENLHNAISQYLGGVDNAATKVWWDKKSK", "protein production": "not failed"},
      {"sequence": "SEPPKMNPVVEPLSWMLGTWLSDPPGAGTYPTLQPFQYLEEVHISHVGQPMLNFSFNSFHPDTRKPMHRECGFIRLKPDTNKVAFVSAQNTGVVEVEEGEVNGQELCIASHSIARISFAKEPHVEQITRKFRLNSEGKLEQTVSMATTTQPMTQHLHVTYKKVTP", "protein production": "not failed"},
      {"sequence": "SERRYKQLFDSGRDGIFVVQMDEEEGVAQIVEANWSAHEMFGYSQGAFEELAFASLVDKGEREGVERLLKELPLKGGALIESHFVLLEHRSIPIELSIQSFLLEEKRTLYVSARDIT", "protein production": "failed"},
      {"sequence": "SERTELLKPRTLADLIRILHELFAGDEVNVEEVQAVLEAYESNPAEWALYAKFDQYRYTRNLVDQGNGKFNLMILCWGEGHGSSIHDHTDSHCFLKLLQGNLKETLFDWPDKKSNEMIKKSERTLRENQCAYINDSIGLHRVENVSHTEPAVSLHLYSPPFDTCHAFDQRTGHKNKVTMTFHSKFGIRTPFTTSGSLENN", "protein production": "failed"},
      {"sequence": "SEVIRSQKRTVSNDVVSTPTLPLYLTAPHMEVRLEEFELFAIDRLRVLKGVSDGLARARNPNEMDDLVETLWKEHMRLSDVSEMINKDIISHFVLRLVYCRSDELKKWFLSMETAPFRHRFRLKKIEEQRAIVGEFGLPYKAVIGAELESLKERLGLVARSHGQISSDVENIYYKVPFEEVPDLVASRRVLLQKGFAFVAGTQLVSLVVTQFRSHLSKALILTNRKWTTTIREREKDRLTPIVEALSTSYLGPDYSQSNEYADISLKDIDQVSKSSFPLCMRHLFEKLREDHHLKHGGRMQLGLFLKGVGLKLDDALAFWREEFTKKVGSERFDKEYAYAIRHNYGKEGKRTDYTPYACSKIITSAPGAGDHHGCPYRHFSEDNLKAALSRMGLSSRGMEDVMDKVRNRHYQLACTLTFEAVYGTSCDTGINHPNQYFEESQKILKSKTPAAPV", "protein production": "not failed"},
      {"sequence": "SFEIGCELEAQRELRAKQTLVGQVIDEDLMSIVYQPVWDIEAMQPLGFECLARFSPLPLRSPDKWFADAAEVGMGVELELHAIRKALQAIGRFPAPIDLSVNASAATILGGDLARLFDGVPLDRLIVEITEHSSVGNYDAILDVLRPLRQRGLRLAVDDAGAGYSSLHHILNMQPDFIKLDIGLTQNIDLDPARKALARALVGFARDTGSRIVAEGVERQSELDALRSIGVKKVQGYLLGRP", "protein production": "failed"},
      {"sequence": "SFQTVPSTAETSAVLLQDSGWDALAQRLALIETAEHSIDIQYYIWNSDASGHYLASRLLAAADRGVKVRVMLDDINLNEREDLLVALNAHPHVEIRVFNPIPTRRGVTKWVNFLGDFSRLNRRMHNKSFTVDGVFSVVGGRNIGDEYFDLSNEINFRDRDVLVRGSVVYDIQTSFIEYWDSRWSYPVDLLAKEASQEPLLQKQPVLDEIDAPVYKNYPA", "protein production": "failed"},
      {"sequence": "SFRTTKEEVVEKAKAFISAHYTEELNLSVIASQLYVNPFYLRRIFKEETELSPSQYLLKKRIEAALALLVNQEETITDIAFKVGFKSPAHFSTVFRHMIGLPPQKYRES", "protein production": "failed"},
      {"sequence": "SFSAPIEDLQVRIAFLDELVEQLNTQLALQTQEIADLKKQMQLLYQRVEASDLSEGIAPFDPNTNKPPHY", "protein production": "failed"},
      {"sequence": "SGAAAAEADRTLFVGNLETKVTEELLFELFHQAGPVIKVKIPKDKDGKPKQFAFVNFKHEVSVPYAMNLLNGIRLYGRPIKIQFRSGSSHAPQDVSLSYPQHHVGNSSPTSTSPSRYERTMDNMTSSAQIIQRSFSSPENFQRQAVMNSALRQMSYGGKFGSSPLDQSGFSPSVQSHSHSFNQSSSSQWRQGTPSSQRKVRMNSYPYLADRHYSREQRYTDHGSDHHYRGKRDDFFYEDRNHDDWSHDYDNRRDSSRDGKWRSSRH", "protein production": "not failed"},
      {"sequence": "SGDERFTLRIKDLRTGELLPDIIEDIFYGVAFSPDGTRLFYTVVDDSWRPYQVKSHILGTPVAEDEVLYQEDDVAMWLGFDLSSDRRHLVLSIGCSEFSETRLLRFEDYDAGLHTVISREHHILYEAEPFLLDGKETLLLTHNKDAINSMVSLVDPAELSKPLAEQHWRTVVEHSDDVRVNGAGVTSTHLVLSVRKDTIERVQVLPLAGLGTATQGAPVEPAFHEELYTAGVSGSDYESPVIRMGYTSYFTPSRVYDFVLPTAEQPGGELLLRKESPVLGGYSASDYVATREWATADDGTQVPLSVLRHASVQQDGTAAGLVYGYGSYELSMDPGFGVARLSLLDRGIVMVIAHIRGGGELGRKWYEDGKKFTKKNTFTDFIAATDWLAGSGWVDPSRIAAMGGSAGGLLMGAVANMAPEKYAAVVAQVPFVDALTTILDPELPLSALEWEEWGNPITDPEAYAYMKSYTPYENVGAVPYPKIAAVTSFNDTRVLYVEPAKWVQALRSASTGSEPIVMKIEMDGGHGGASGRYVQWRERAWDYAFIADSVG", "protein production": "failed"},
      {"sequence": "SGEKSENCGVPEDLLNGLKVTDTQEAECAGPPVPDPKNQHSQSKLLRDDEAHLQEDQGEEECFHDCSASFEEEPGADKVENKSNEDVNSSELDEEYLIELKKNMSDEEKQKRREESTRLKEEGNEQFKKGDYIEAESSYSRALEMCPSCFQKERSILFSNRAAARMKQDKKEMAINDCSKAIQLNPSYIRAILRRAELYEKTDKLDEALEDYKSILEKDPSIHQAREACMRLPKQIEERNERLKEEMLGKLKDLGNLVLRPFGLSTENFQIKQDSSTGSYSINFVQNPNNNR", "protein production": "not failed"},
      {"sequence": "SGHPPLEFSDCYLDSPDFRERLKCYEQELERTNKFIKDVIKDGNALISAMRNYSSAVQKFSQTLQSFQFDFIGDTLTDDEINIAESFKEFAELLNEVENERMMMVHNASDLLIKPLENFRKEQIGFTKERKKKFEKDGERFYSLLDRHLHLSSKKKESQLQEADLQVDKERHNFFESSLDYVYQIQEVQESKKFNIVEPVLAFLHSLFISNSLTVELTQDFLPYKQQLQLSLQNTRNHFSSTREEMEELKKRMKEAPQTCKLPGQPTIEGYLYTQEKCVWGHRGIHWVSISQELLPLVGCEFWAPLLFIDP", "protein production": "not failed"},
      {"sequence": "SGKVILITGASRGIGLQLVKTVIEEDDECIVYGVARTEAGLQSLQREYGADKFVYRVLDITDRSRMEALVEEIRQKHGKLDGIVANAGMLEPVKSISQSNSEHDIKQWERLFDVNFFSIVSLVALCLPLLKSSPFVGNIVFVSSGASVKPYNGWSAYGCSKAALNHFAMDIASEEPSDKVRAVCIAPGVVDTQMQKDIRETLGPQGMTPKALERFTQLYKTSSLLDPKVPAAVLAQLVLKGIPDSLNGQYLRYNDERLGPVQG", "protein production": "not failed"},
      {"sequence": "SHHKVSVSPVVHVRGLCESVVEADLVEALEKFGTICYVMMMPFKRQALVEFENIDSAKECVTFAADVPVYIAGQQAFFNYSTSKRITRPGN", "protein production": "not failed"},
      {"sequence": "SHPCFVQGRPELLSQIKRKQSARTVEDKQVNEQTQQNLEVVMAEMRAMREKAKNMEDKMNKLTKENRDMWTQMGSMRQQHARQQQYFKKLLHFLVSVMQPGLSKRVAKRGVLEIDFCAANGTAGPNSKRARMNSEEGPYKDVCDLLESLQRETQEPFSRRFTNNEGPLISEVTDEFGNSPVGRGSAQDLFGDTFGAQSSRYSDGGATSSREQSPHPIISQPQSNSAGAHGANEQKPDDMYMGSGPLTHENIHRGISALKRDYQGASPASGGPSTSSSAPSGAGAGARMAQKRAAPYKNATRQMAQPQQDYSGGFVNNYSGFMPSDPSMIPYQPSHQYLQPHQKLMAIEDQHHPTTSTSSTNADPHQNLYSPTLGLSPSFDRQLSQELQEYFTGTDTSLESFRDLVSNHNWDDFGNNVPLDDDEEGSEDPLRQLALENAPETSNYDGAEDLLFDNEQQYPENGFDVPDPNYLPLADEEIFPHSPALRTPSPS", "protein production": "failed"}
    ]}
  ]
}
